The values that follow come from PMC4414246.

Among the targets are dK50dM51 E19K (UniProt P09012 10-89, E19K;del50-51); U1A L49K (UniProt P09012 10-89, L49K); U1A E19K (UniProt P09012 10-89, E19K); U1A L49A (UniProt P09012 10-89, L49A); U1A E19F (UniProt P09012 10-89, E19F); U1A M51K (UniProt P09012 10-89, M51K); U1A M51A (UniProt P09012 10-89, M51A); U1A (UniProt P09012 10-89); U1A E19S (UniProt P09012 10-89, E19S); dK50dM51 E19S (UniProt P09012 10-89, E19S;del50-51); U1A E19A (UniProt P09012 10-89, E19A); U1A E19A:N15V (UniProt P09012 10-89, N15V;E19A); U1A L49A:E19A (UniProt P09012 10-89, E19A;L49A); U1A M51A:E19A (UniProt P09012 10-89, E19A;M51A); U1A E19S:Y13Q (UniProt P09012 10-89, Y13Q;E19S); U1A E19S:N15V (UniProt P09012 10-89, N15V;E19S).

Common to all, as to assay: fluorescence polarization
In general terms: Polarisation of emitted light reports the rotation of a fluorescent probe.

As a reminder, the Kd is the equilibrium constant for the complex coming apart. A higher Kd goes with lower affinity. As for GGCAGATCTGAGCCTGGGAGCTCTCTGCC (structured_DNA) [TAR DNA], the Kd with dK50dM51 E19K amounted to 29.8 ± 5.8 µM; with U1A L49K, 19.5 ± 2.9 µM; with U1A E19K, 12.3 ± 2 µM; in the series with U1A L49A, 88.2 ± 22 µM; with U1A E19F, 156 ± 80 µM; in the series with U1A M51K, 54.3 ± 7.9 µM. The Kd with U1A M51A came out at 179 ± 37.5 µM; in the series with U1A it was 146 ± 46 µM; with U1A E19S, 91.9 ± 33.4 µM; with dK50dM51 E19S it was 59.9 ± 14.2 µM; with U1A E19A, 100 ± 33.4 µM.

In the case of AGCUUAUCCAUUGCACCGGAUAAGCU (structured_RNA) [U1hpII RNA], the Kd is 48.4 ± 12.4 µM with U1A E19A:N15V; 11.7 ± 2.1 µM with U1A L49A:E19A; less than 0.01 µM with U1A L49A; 36.1 ± 6.8 µM in the series with U1A E19F; 15.8 ± 2.7 µM with U1A M51A:E19A; 63.6 ± 8.9 µM with U1A E19S:Y13Q. In addition, the Kd was 11.4 ± 1.6 µM with U1A E19S and 15.1 ± 2 µM with U1A E19S:N15V.
